The record followed here is PMC8626073.

For this series, the target named is T1, NlFMD-F (female-specific isoform, SR-rich protein) (Nilaparvata lugens, UniProt A0A974LNP1 1-613).
T1 sequence: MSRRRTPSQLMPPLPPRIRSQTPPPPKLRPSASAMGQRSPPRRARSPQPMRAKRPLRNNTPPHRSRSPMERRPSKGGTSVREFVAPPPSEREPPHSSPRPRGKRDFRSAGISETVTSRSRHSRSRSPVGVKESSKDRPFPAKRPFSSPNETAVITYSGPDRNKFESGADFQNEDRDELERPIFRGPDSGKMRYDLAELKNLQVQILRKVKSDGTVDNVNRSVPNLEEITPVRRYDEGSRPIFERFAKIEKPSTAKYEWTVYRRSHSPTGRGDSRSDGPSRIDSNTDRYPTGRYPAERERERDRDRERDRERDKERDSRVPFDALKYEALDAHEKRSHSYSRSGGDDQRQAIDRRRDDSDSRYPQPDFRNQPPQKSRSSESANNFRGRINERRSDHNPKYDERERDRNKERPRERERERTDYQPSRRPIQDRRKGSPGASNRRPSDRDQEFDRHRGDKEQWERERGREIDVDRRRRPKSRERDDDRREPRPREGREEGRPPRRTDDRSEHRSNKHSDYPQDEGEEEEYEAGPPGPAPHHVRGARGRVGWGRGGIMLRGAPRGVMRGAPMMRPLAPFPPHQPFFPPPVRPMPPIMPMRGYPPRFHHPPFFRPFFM
Put plainly: MST.

Take GAAGAAGAA (ssRNA) [GAAGAAGAA repeat (RAAGAA motif)]: the binding result is “no binding”.
